In the nanobody polyreactivity screen of Harvey et al. (2022):

Assay: yeast display, Sf9 membrane polyspecificity reagent, FACS + sequencing; frameworks hold sequencing errors
How it was run: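 A nanobody's polyreactivity label depends on the gate it was sorted from. Yeast display cells were stained with 10% biotinylated, detergent-solubilized Sf9 membrane reagent for 1 hour at 4 °C, enriched on streptavidin microbeads and sorted by FACS. The low and high (top ~1%) gates were set on anti-HA fluorescence for expression and streptavidin fluorescence for reagent binding.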

With “QVQLVESGGGLVQAGGSLRLSCAASGFIFPPYDMGWYRQAPGKERELVADITYSDGITYYADSVKGRFTISRDNAMNTVYLQMNSLKPEDTAVYYCNADYSRIGPEVDYWGQGTQVTVSS” as the sequence, how does the “polyreactivity (PSR sort gate)” value read?
Its value is “low polyreactivity”.

With “QVQLVESGGGLVQAGGSLRLSCAASGFIFPRYAKGWYRQAPGKERELVAAISKSGGRTYYADSEKGGFTISRDYAKNTFYLQMNSLKPEDTAVYYCADGRISRFSRYYYWGQGTHVTVSS” as the sequence, how does the “polyreactivity (PSR sort gate)” value read?
Its value is “high polyreactivity”.

With “QVQLVESGGGLVQAGGSLRLSCAASGFIFPRYAMGWSRQRPGKESELVAAISRSGGITRYADSVKGRFTISRDNAKNTVYLQRNSLKPEDTAVYYCAAYIQGWVTAEWVRDDYWGKGTQVTVSS” as the sequence, how does the “polyreactivity (PSR sort gate)” value read?
The value was “high polyreactivity”.

For “QVQLVESGGGLVQAGGSLRLSCAASGFIFPRYVMGWSRQAPGKERELVAAINSDISTNYADSVKGRFTISRDNAKNTVYLQMNSLKPEDTAVYDCAAERWDDRWEFDYWGQGTQVTVSS”, which “polyreactivity (PSR sort gate)” value is on record?
Its value is “low polyreactivity”.

For “QVQLVESGGGLVQAGGSLRLSCAASGFIFPSYAMGWYRQAPGKERELVATISKRVATTYYADSVKGRFTISRDNAKNTVYLQMNSLKPEDTAVYYCAAAYRGYARHDYWGQGTQVTVSS”, which “polyreactivity (PSR sort gate)” value is on record?
The value was “high polyreactivity”.

For “QVQLVESGGGLVQAGGSLRLSCAASGFIFPTNVMGWYRQAPGKEREFVASITWRGGGTYYADSVKGRFTISRDNAKNTVYVQMNSLKPEDTAVYYCAAGRSWSSYWKYDYWGQGTQVTVSS”, which “polyreactivity (PSR sort gate)” value is on record?
Its value is “low polyreactivity”.

With “QVQLVESGGGLVQAGGSLRLSCAASGFIFPWYAMGWYRQAPGKERELVAAISSSGGRTYYADSVKGRFTISRDNAKNTVYLQMNSLKPEDTAVYYCNVANGLSQVYRYNYWGQGTQVTVSS” as the sequence, how does the “polyreactivity (PSR sort gate)” value read?
The value was “high polyreactivity”.

For “QVQLVESGGGLVQAGGSLRLSCAASGFIFPYDAMGWYRQAPGKERELVAAITYRDGSTYYADSVKGRFTISRDNAKNTVYLQMNSLKPEDTAVYYCAADRYVYWDLYGYWGQGTQVTVSS”, which “polyreactivity (PSR sort gate)” value is on record?
Its value is “low polyreactivity”.

For “QVQLVESGGGLVQAGGSLRLSCAASGFIFPYYAMGLYRQAPGKEREMVAAITFSATRTYYADSVKGRFTISRDNAKNTVYLQMNSLKPEDTADYYCKARGGVYGSYFEFNYWGQGSQVTVSS”, which “polyreactivity (PSR sort gate)” value is on record?
The value was “low polyreactivity”.

Which “polyreactivity (PSR sort gate)” value does the source give for “QVQLVESGGGLVQAGGSLRLSCAASGFIFPYYAMGWYRQAPGKERELVAAISQSGGSTYYADSVKGRFTISRDNAKNTVYLQMNSLKPEDTAVYYCAKYIPSYHDGDYWGQGTQVTVSS” here?
Its value is “low polyreactivity”.

Which “polyreactivity (PSR sort gate)” value does the source give for “QVQLVESGGGLVQAGGSLRLSCAASGFIFPYYAMGWYRQAPGKERELVAAITSSGGRTYYADSVKGRFTISRDNAKNTVYFQMNSLKPEDTAVYYCAAYYLTPTDVEYDYWGQGTQVTVSS” here?
Its value is “high polyreactivity”.

Which “polyreactivity (PSR sort gate)” value does the source give for “QVQLVESGGGLVQAGGSLRLSCAASGFIFQAYAMGWYRQAPGKERELVAAISSSGGSTYYADSVKGRFTISRDNAKNTVYLQMNSLKPEDTAVYYCAARSRRVSLIRDSYGYWGQGTQVTVSS” here?
The value was “high polyreactivity”.

For “QVQLVESGGGLVQAGGSLRLSCAASGFIFQPYAMGWYRQAPGKERELVAAITSRGGRTYYADSVQGRFTICRDNAKNTVYLQMNSLKPEDTSVYYCNADIYASEYYYWGQGTQVTVSS”, which “polyreactivity (PSR sort gate)” value is on record?
The value was “low polyreactivity”.

For “QVQLVESGGGLVQAGGSLRLSCAASGFIFQPYSLGWYRQAPGKERELVAAITSRGGRTYYADSVKGRFTISRDNAKNTVYLQMNSLKPEDTAVYYCNADIYASEYYYWGQGTQVTVSS”, which “polyreactivity (PSR sort gate)” value is on record?
Its value is “low polyreactivity”.

With “QVQLVESGGGLVQAGGSLRLSCAASGFIFQQNAMGWYIQAPGKERELVAAISRSGGRTYYADSVKGRFTISRDNAKNTVYLQMNSLKPEDSAVYYCATRFYTKAFEYDYWGQGTQVTVSS” as the sequence, how does the “polyreactivity (PSR sort gate)” value read?
Its value is “high polyreactivity”.

For “QVQLVESGGGLVQAGGSLRLSCAASGFIFQRYAMGWYRQAPGKERELVAAITRTGGRTYYSDSVKGRFTISRDNAKNTVYLQMNSLKPEDTAVYYCAADRTMSYEYWGQGTKVTVSS”, which “polyreactivity (PSR sort gate)” value is on record?
Its value is “high polyreactivity”.

Which “polyreactivity (PSR sort gate)” value does the source give for “QVQLVESGGGLVQAGGSLRLSCAASGFIFRAYTMGWYRQAPGKERELVAAITSGSSTNYADSVKGRFTISRDNAKNTVYLQMNSLKPEDTAVYYCNTDWVWLIIEYDYWGQGTQVTVSS” here?
Its value is “low polyreactivity”.

For “QVQLVESGGGLVQAGGSLRLSCAASGFIFRDNAMGWYRQAPGKERELVAAISERGGRTYYADSVKGRFTISRDNAKNTVYLQMNSLKPEDTAVYYCAAKTIYDTRGIRHYYWGQGTQVTVSS”, which “polyreactivity (PSR sort gate)” value is on record?
The value was “high polyreactivity”.

With “QVQLVESGGGLVQAGGSLRLSCAASGFIFRGNTMGWYRQAPGKERELVAAISASGGSTYYADSVKGRFTISRDNAKNTVYLQMNSLKPEDTAVYYCNVAVIYRSRTYWYGMDYWGQGTQLTVSS” as the sequence, how does the “polyreactivity (PSR sort gate)” value read?
The value was “high polyreactivity”.

With “QVQLVESGGGLVQAGGSLRLSCAASGFIFRGYAMGWYRQAPGKERELVAAISRSGGSTYYADSVKGRFTISRDNAKNTVYLQMNSLKPEDTAVYFCAVALFETGHYYWGQGTQVTVSS” as the sequence, how does the “polyreactivity (PSR sort gate)” value read?
The value was “high polyreactivity”.

With “QVQLVESGGGLVQAGGSLRLSCAASGFIFRGYAMGWYRQAPGKERELVAAISRSGGSTYYADSVKGRFTISRDNAKNTVYLQMNSLKPEDTAVYYCAARSFYSKGYDYWGQGTQVTVSS” as the sequence, how does the “polyreactivity (PSR sort gate)” value read?
The value was “high polyreactivity”.

For “QVQLVESGGGLVQAGGSLRLSCAASGFIFRGYAMGWYRQAPGKERELVAAITYSTGNTYYADSVKGRFTISRDNAKNTVYLQMNSLKPEDTAVYYCNKVVRKFIGGYVYYSGGYWGQGTQVTVSS”, which “polyreactivity (PSR sort gate)” value is on record?
Its value is “low polyreactivity”.

Which “polyreactivity (PSR sort gate)” value does the source give for “QVQLVESGGGLVQAGGSLRLSCAASGFIFRKYTMGWYRQAPGKERELVATIDSSGGSTYYADSVKGRFTISRDNAKNTVYLQMNSLKPEDTAVYYCNADLRELSPWYWYSGEMDYWGQGTQVTVSS” here?
The value was “low polyreactivity”.

Which “polyreactivity (PSR sort gate)” value does the source give for “QVQLVESGGGLVQAGGSLRLSCAASGFIFRLNAMGWYTQAPGKERELVATITSSGSTSYADSVKGRFTISRDNAKNTVYLQMNSLKPEDTAVYYCAARRLRYRYPLYSRNYWGQGTQVTVSS” here?
The value was “high polyreactivity”.

Which “polyreactivity (PSR sort gate)” value does the source give for “QVQLVESGGGLVQAGGSLRLSCAASGFIFRLYALGWYRQAPGKERELVAAIRSAGSTYYADSVKGRFTISRDNAKNTVYLQMNSLKPEDTPVYYCAARSGHTYYFIGNYWGQGTQVTVSS” here?
Its value is “high polyreactivity”.

For “QVQLVESGGGLVQAGGSLRLSCAASGFIFRLYAMGLYRQAPGKERELVAAITTSGDSTYYADSVKGRFTISRDNSKNTFYLQMNCLKPEDTAVYYCAARYYYPPKRGYWGQGSQVTVSS”, which “polyreactivity (PSR sort gate)” value is on record?
The value was “high polyreactivity”.

For “QVQLVESGGGLVQAGGSLRLSCAASGFIFRPNAMGWYRQAPGKERELVAAITGRSGSTNYADSVKGRFTISRDNAKNTVYLQMNSLKPEDTAVYYCAARVWQGYYPGYYYWGQGTQVTVSS”, which “polyreactivity (PSR sort gate)” value is on record?
Its value is “high polyreactivity”.

For “QVQLVESGGGLVQAGGSLRLSCAASGFIFRPYTMGWYRQAPGKERELVAAITSGGSTYYADSVKGRFTISRDNAKNTVYLQMNSLKPEDTAVYYCAARYQLYRRGYDYWGQGTQVTVSS”, which “polyreactivity (PSR sort gate)” value is on record?
Its value is “high polyreactivity”.

Which “polyreactivity (PSR sort gate)” value does the source give for “QVQLVESGGGLVQAGGSLRLSCAASGFIFRRNAMGWYRQAPGKERELVATISSGVGTYYADSVKGRFTISRDNAKNTVYLQMNSLKPEDTAVYYCATLVHYLYTGYRAYYSYRLDYWGQGTQVTVSS” here?
The value was “high polyreactivity”.

Which “polyreactivity (PSR sort gate)” value does the source give for “QVQLVESGGGLVQAGGSLRLSCAASGFIFRRNVMGWYRQAPGKERELVAAISRSGASTYYADSVKGRFTISRDNAKNTVYLQMNSLKPEDTAVYYCNKRDKVTYSYDYWGQGTQVTVSS” here?
Its value is “high polyreactivity”.

For “QVQLVESGGGLVQAGGSLRLSCAASGFIFRRYAMGWYRPAPGKVWELVAAITLRGGSTYYADSVKGRFTISRDNAKNTVYLQMNSLKPEATAVYYCAAGVRGQHDGYYWGQGTQETVSS”, which “polyreactivity (PSR sort gate)” value is on record?
The value was “high polyreactivity”.

For “QVQLVESGGGLVQAGGSLRLSCAASGFIFRRYAMGWYRQAPGKERELVAAISGSGGRTYYADSVKGRFTISRDNAKNTVYLQMNSLKPEDTAVYYCAATYQYLKSGYYWGQGTQVTVSS”, which “polyreactivity (PSR sort gate)” value is on record?
The value was “high polyreactivity”.

Which “polyreactivity (PSR sort gate)” value does the source give for “QVQLVESGGGLVQAGGSLRLSCAASGFIFRRYAMGWYRQAPGKERELVAAITWSGGSTYYADSVKGRFTISRDNAKNTVYLQMNSLKPEDTAVYYCNRASLPSVWGYDYWGQGTQVTVSS” here?
The value was “high polyreactivity”.

Which “polyreactivity (PSR sort gate)” value does the source give for “QVQLVESGGGLVQAGGSLRLSCAASGFIFRRYAMGWYRQAPGKERELVAIITSGVRTYYADSVKGRFTISRDNAKNTVYLQMNSLKPEDTAVYYCASRVKDYPEYDYWGQGTQVTVSS” here?
The value was “low polyreactivity”.

With “QVQLVESGGGLVQAGGSLRLSCAASGFIFRRYAMGWYRQAPGKERELVAVIRSSGGSTYYADSVKGRFTISRDNAKNTVYLQMNSLKPEDTAVYYCAAVDARSGGYYWTLRYYYWGQGTQVTVSS” as the sequence, how does the “polyreactivity (PSR sort gate)” value read?
The value was “high polyreactivity”.

With “QVQLVESGGGLVQAGGSLRLSCAASGFIFRRYTMGWYRQAPGKERELVAAISSRGGSTYYADSVKGRFTISRDNAKNTVYLQMNSLKPEDTAVYYCNAGLGVRRRYDYWGQGTQVTVSS” as the sequence, how does the “polyreactivity (PSR sort gate)” value read?
The value was “high polyreactivity”.

Which “polyreactivity (PSR sort gate)” value does the source give for “QVQLVESGGGLVQAGGSLRLSCAASGFIFRSNAMGLYRQAPGKEREFVAAISSRGGSTTYEDSVKGRFTISRDNAKNTVYLQMNSLKPEDTAVYYCARDWYYYPQYRQRYYYWGQGTQVTVSS” here?
The value was “high polyreactivity”.

Which “polyreactivity (PSR sort gate)” value does the source give for “QVQLVESGGGLVQAGGSLRLSCAASGFIFRSYAMGWYRQAPGKERELVAAITHTGTTYYADSVKGRFTISRDNAKNSVYLQMNSLKPEDTAVYYCNANYYRTHYVYWGQGTQVTVSS” here?
The value was “high polyreactivity”.

For “QVQLVESGGGLVQAGGSLRLSCAASGFIFRSYAMGWYRQAPGKERELVAANSSSGGRTYYADSVKGRFTISRDNAKNTVYLQMNSLKPEDTAVYYCATSLYTDNSWDNYWGQGTQVTVSS”, which “polyreactivity (PSR sort gate)” value is on record?
Its value is “high polyreactivity”.

With “QVQLVESGGGLVQAGGSLRLSCAASGFIFRTYAMGWYRQAPGKERELVAAISGTTGSTYYADSVKGRFTISRDNAKYTVYLQMNSLKPEDTAVYFCAADYYWYIRYDYWGQGTQVTVSS” as the sequence, how does the “polyreactivity (PSR sort gate)” value read?
Its value is “low polyreactivity”.

Which “polyreactivity (PSR sort gate)” value does the source give for “QVQLVESGGGLVQAGGSLRLSCAASGFIFRTYAMGWYRQAPGKERELVAAISRGGGTTYYADSVKGRFTISRDNAKNTVYFQMNSLKPEDTAFYYCAAYSQYLKRDYWGQGTQVTVSS” here?
The value was “high polyreactivity”.

For “QVQLVESGGGLVQAGGSLRLSCAASGFIFRTYAMGWYRQEPGKERELVAAITYSAGSTYYADSVKGRFTISRDNAKNTVYLQMNSLKPEDTADYYCNVRKTWYGYSVTGRYDYWGQGTQVTVSS”, which “polyreactivity (PSR sort gate)” value is on record?
The value was “low polyreactivity”.

For “QVQLVESGGGLVQAGGSLRLSCAASGFIFRTYSMGWYRQAPGKERELVAAISGTTGSTYYADSVKGRFTISRDNAKNTVYLQMNRLKPEDTAVYYCAADYYWYIRYDYWGQGTQVTVSS”, which “polyreactivity (PSR sort gate)” value is on record?
Its value is “low polyreactivity”.
